Data from the DeepSol protein solubility set.

test: soluble on expression in E. coli; label from the status in PepcDB or PDB records

Sequence | soluble on expression in E. coli
SDKEYVGFAALPNQLHRKSVKKGFDFTLMVAGESGLGKSTLINSLFLTNLYEDRQVPEASARLTQTLAIERRGVEIEEGGVKVKLTLVDTPGFGDSVDCSDCWLPVVKFIEEQFEQYLRDESGLNRKNIQDSRVHCCLYFISPFGRGLRPLDVAFLRAVHEKVNIIPVIGKADALMPQETQALKQKIRDQLKEEEIHIYQFPECDSDEDEDFKRQDAEMKESIPFAVVGSCEVVRDGGNRPVRGRRYSWGTVEVENPHHCDFLNLRRMLVQTHLQDLKEVTHDLLYEGYRARCLQSLARPGARDRASRSKLSRQSATEIPLPMLPLADTEKLIREKDEELRRMQEMLEKMQAQMQQSQAQGEQSDAL | soluble
HVYDEQIYRKSSEVLRMSSERIEDELKKIEDVSYEIITDEQIQRILSMQNRDDTYDQYQMKQELWDQLAGYASDEKYIDSIHVIDARGSEYSAGSSSSDLLQQEQEEVFKRAKAKSGRNLWMTLGGSDPVLISARQIRSYHQLSLNGLGMVLIQVNVKQMIRDVPKDWGDSVGDIMIADQGGNLVYTAHASAHVPEAAKETLKHPGYDLIKKNGKRYFISYLQSSYQNWSYYNVIPFDQMFAK | not soluble
MSLNSTLHIPKAEIHVHLEATITPSLCRKFAERNKVKLSEDIFGSEYAYQWEDFYDFIKRYDIVTGVIYTPEDYYELTYEYLKECASYNVLYVEAMVSSTHAKAKGMTYHSFLDSVHQASQDAERDFGIVSRYLMNGIRHLGADSVQETAKEVLNNPHPALVGFGLAGDELNFPPNLFTKTFDMLKQESYPITVHAGEWDGPENIRNAIHLLHPTRLGHGVRSIEDLDLVKEIVEKDIVLETCPTSNIATKIYENYESHPVKKLHDLGVRVTVNSDDPPFFNATIQGEYDAMAGIGFSAQELLSMTRNAIESSFLPEDKKTEILTKLNEGHHHHHH | soluble
MGFEDGFYTILHLAEGQHPNSKIPGGMYASSKDGKDVPVTAEPLGPQSKIRWWIARDPQAGDDMYTITEFRIDNSIPGQWSRSPVETEVPVYLYDRIKAEETGYTCAWRIQPADHGADGVYHIVGNVRIGSTDWADLREEYGEPQVYMKPVPVIPNVYIPRWFILGYEE | soluble
MGVVHDVWRATKELLEATALPWPSEEREERLAAVDRLLREREELLRKLRPPYSEEEQELGREIIVWNQEIEARLLRVCEEIRRDLRMTGAKRQANARYVHPYEQPLSFDGMFYDKRR | not soluble
QCSSEVTARYKATLLKGNSLTDLTGGFGIDCAFLAARFKSATYVERQQELCEIAAHNFPILNLNHINVKNEDGVSYLQAMSPVDCIFLDPARRNEHGGKTVAISDCEPDVAELEELLLNKAEQVMVKLSPM | not soluble
IPFPLSAYTHGGEFVRQLDKRILILDGAMGTMIQRYKLGEADFRGERFAEHHKDLKGDNELLSLVRPDVIAEIHRQYLEAGADVIETNTFGATSIAQGDYDLPELAYEMNLESARLARAACDAYSTPEHPRFVAGALGPQPKTASISPDVNDPGARNVTFDELRAAYVEQLNGLLDGGIDIVLIETIFDTLNAKAAIFAVEEAFEARGVRLPVMISGTVTDASGRILSGQTVEAFWNSVRHARPVTIGLNCALGAALMRPYVAELSKICDTYVCVYPNAGLPNPMAETGFDETPADTSALLEEFAQAGLVNMAGGCCGTTPEHIRAIAGKVAALTPRAVPEVPVKTRLSGLEALNIDDETLFVNVGERTNVTGSKMF | not soluble
MTGPEPVPAGPPPDPTPPRRAGSVWAHVGQHFTEEAFDIVVIGAGRMGAACAFYLRQLAPGRSLLLVEEGGLPNEEGATILAPGVWTAQDIPAGQEAQAEWTREQLLGALGSGKTLEVEDRPLLHLLPAGEGSGLTPTLDALADFPEALALLDPARLPVARVDPRALTYRPGSLALLAAQQAIGQGAGLLLNTRAELVPGGVRLHRLTVTNTHQIVVHETRQIRAGVIIVAAGAAGPALVEQGLGLHTRHGRAYRQFPRLDLLSGAQTPVLRASGLTLRPQNGGYTLVPAIHHRDPHGYHPAGGSLTGVPTGLRRELLEDLVGLMDAVPALAGEGLELGRSSADVPGAWLALPGGRPDAPPQAEELAPGLHLLLGGPLADTLGLAAAHELAQRVSASLEHHHHHH | soluble
MALDVKKYPFIKSLDDELKKYGGGITLTDLLLNSTTLIDQAKDRIQKTKSGDELPHYVSYNEPVLVFYTTLLSLAILNDVKLIRRYAYAEAKQFRSLLHTENEENLLEISKLLDLKINRCDPIKFYLEKKRRIIQKEFCVHFIDYLKYTKDLKEDWKLSGQILHKGYVYLDKNQLIGLIAESIKSKIVEMIRPLNLKEIPEKLKSLIERRGI | soluble
MNADKFVETTISDFMRLNSSRDFEYFVSIAKQLYSRGCRDYYTEAFLTHLKTIFPITEENAEKWLKYGEMLGTVGEKDFRTDIFEQMMKDFVDSNKLSQIAAKFHGFVESVDDWNLLAECLFSRVRALEHKINLTASAPMATDPSESSC | not soluble
MAHHHHHHMNLNKKNEELEKVKIVLTQKIKNLESNLSPKESEIKVMREKIDEMAKSFENNHKKRVNLQIEINEYKMKIKFLHDDLLNYNKTIMNYEKILKNLQDHIKECYLHLHDKKIFNSSFLNLYNKFHKVNDVQNYDAKNVFSEYIRQKEYLENMIEVLKDKLHKETEAFRNEKIKMMNENSLLLKEINDLKMDLNFLKSECHEAQLQNRKMKFLKKRSESKERKKEKKEKKEKKEKKENKDNNEEKNIDIK | soluble
HHHHHHQVQLVQSGAEVKKPGASVKVSCQASGYRFSHFTVHWVRQAPGQRFEWMGWINPYNGNKEFSAKFQDRVTFTADTSANTAYMELRSLRSADTAVYYCARVGEWGWDDSPYDNYYMDVWGKGTTVIVSSGGGGSGGGGSGGGGSEIVLTQAPGTLSLSPGERATFSCRSSHSIRSRRVAWYQHKPGQAPRLVIHGVSNRASGISDRFSGSGSGTDFTLTITRVEPEDFALYYCQVYGASSYTFGQGTKLERK | soluble
SSGNHIFKGRAAGIAVNENGKGLITENVIRENQWGGVDIRRGGIPVLRSNLICFGYSDGVVVGDEGKGLIEGNTIYANKGCGVWMMSSSLPHVTSNHVSYNGLYGVAVFSQKDGSSELPRGHRAQENFSEDGDAILWETELEKEDDPLRRPITIALVESNSINHNGASGLYVQSSEALHVITNVIHANGDRGITVAQSSQPTRVANNSISCNRQSGVKVEAQCKVELRGNGIYDNRGHGIITKGDSTIVIENDIIGNRGSGLQLLPRSDTKVIKNRIHSFRAYGIAVRGRAKALVQENIIFQGKTSKTIFQQISNNRECIMQNNKFLVFKKKSDTWR | soluble
MSLRYPMSKLAYHRVLLKLSGEALMGSADYGIDPKVINRLAGEVIEAQNAGAELALVIGGGNIFRGAGLAAKGMDRVTGDHMGMLATIINALAMQDALEKLGTKVRVMSAIKINNVCEDFIRRRAIRHLEKSRITIFAAGTGNPFFTTDSGAALRAIEIGADLLLKATKVDGIYNKDPQKHCDAVKYSTLSYDEVISQNLEVMDTAAFALARDSNLPLRIFDIEQPGVLLRILHGEEIGTLVKERNSKSEGHHHHHH | not soluble
KCETKEKGAITAKELYTMMTDKNISLIIMDARRMQDYQDSCILHSLSVPEEAISPGVTASWIEAHLPDDSKDTWKKRGNVEYVVLLDWFSSAKDLQIGTTLRSLKDALFKWESKTVLRNEPLVLEGGYENWLLCYPQYTTNAKV | soluble
MKVFEGKPRINSPHITGNYPSTPFIFYIPTSGQRPMQWSAEKLPEGLELDSKTGIISGVMTSKGDYTVTLKAENALGVSVKQLEHHHHHH | not soluble
MNRLDQLGIRINLICNVFDKWIGQQDLNYNLFTVLYTLATEGSRTQKHIGEEWSLPKQTVSGVCKTLAGQGLIEWQEGEQDRRERLLSLTEKGKVHAAPLTENAQEFSDKVFSTFGDKRTTRLFADLDALAEVMEKTISENKK | not soluble
HMTDLKASSLRALKLMDLTTLNDDDTDEKVIALCHQAKTPVGNTAAICIYPRFIPIARKTLKEQGTPEIRIATVTNFPHGNDDIDIALAETRAAIAYGADEVDVVFPYRALMAGNEQVGFDLVKACKEACAAANVLLKVIIETGELKDEALIRKASEISIKAGADFIKTSTGKVAVNATPESARIMMEVIRDMGVEKTVGFKPAGGVRTAEDAQKYLAIADELFGADWADARHYRFGASSLLASLLKALGHGDGKSASSY | soluble
MKIAFLRPGKIGTPANHVYALLDYLREKGAEIREYDLKERDVNDVVKEIEEWKPLFLMDVNATGVIVAERDGKKHILADILGIVHVSVFFEDPLLFFPAFEGVEKPQNYIAFITELKHTDSLTALGIQNISYISPFVDLKQFPESEGEKDIEIAFVGPVVDPQIILNSVSQNYPQEIMPFFIETGEFMFRNPEVHILTAFNYVFGLFNPQMQEQFNKWREQNPSAFMRFLNDITAYTTMRRRMYLLHFLDGMDVKILGDYQGNLFENHEAIKVSSYEQLLKYYSRSNITVYVSPQTYPTGLSVIPLEILYMGSLPLIDFKGAIPGFLKPGEEIETFAPLDRADLEEKIVFYIEENREGINEIVQRGKKAVQERFTVKDRGEFVYNVLSDVKRQYEAAQKGQVN | not soluble
MIDMTMKVGFIGLGIMGKPMSKNLLKAGYSLVVADRNPEAIADVIAAGAETASTAKAIAEQCDVIITMLPNSPHVKEVALGENGIIEGAKPGTVLIDMSSIAPLASREISEALKAKGIDMLDAPVSGGEPKAIDGTLSVMVGGDKAIFDKYYDLMKAMAGSVVHTGEIGAGNVTKLANQVIVALNIAAMSEALTLATKAGVNPDLVYQAIRGGLAGSTVLDAKAPMVMDRNFKPGFRIDLHIKDLANALDTSHGVGAQLPLTAAVMEMMQALRADGLGTADHSALACYYEKLAKVEVTR | not soluble
MIKMAQLEDIRKMYFMEGLSIREINRRTGIHRDTISKYISLEEPKPPKYKLTKERTHPVLGPYIPMIKQIIEDDKTRHRKQRHTGTKIFETLKKEGFSGGYNTVMDYLRKEYRKQREAFLPLEFELGAYAEVDWTEAYFYLKGKETKAHLFVMKLRGSGGFYVRAYPFEKQEAFFDGHIKCFEFMNG | not soluble
MSLSKTYVGSRVRQLRNERGFSQAALAQMLEISPSYLNQIEHDVRPLTVAVLLRITEVFGVDATFFASQDDTRLVAELREVTLDRDLDIAIDPHEVAEMVSAHPGLACAVVNLHRRYRITTAQLAAATEERFSDGSGRGSITMPHEEVRDYFYQRQNYLHALDTAAEDLTAQMRMHHGDLARELTRRLTEVHGVRINKRIDLGDTVLHRYDPATNTLEISSHLSPGQQVFKMAAELAYLEFGDLIDAMVTDGKFTSAESRTLARLGLANYFAAATVLPYRQFHDVAENFRYDVERLSAFYSVSYETIAHRLSTLQRPSMRGVPFTFVRVDRAGNMSKRQSATGFHFSSSGGTCPLWNVYETFANPGKILVQIAQMPDGRNYLWVARTVELRAARYGQPGKTFAIGLGCELRHAHRLVYSEGLDLSGDPNTAATPIGAGCRVCERDNCPQRAFPALGRALDLDEHRSTVSPYLVKQEGHHHHHH | soluble
MGHHHHHHSHEWGTVQLRGSWRVGQTAGGSRNFASYPTNPCFPFSVPEGPGPRCVRITLHQHCRPSDTEFHPIGFHIFQVPEGGRSQDAPPLLLQEPLLSCVPHRYAQEVSRLCLLPAGTYKVVPSTYLPDTEGAFTVTIATRIDRPSIHSQEMLGQFLQEVSVMAVMKT | not soluble
TVPGATTTSSAATETMENVKKCKNFLSTLIKLASSGKQSTETAANVKELVQNLLDGKIEAEDFTSRLYRELNSSPQPYLVPFLKRSLPALRQLTPDSAAFIQQSQQQPPPPTSQ | soluble
